Experimental data reported in paper PMC4614383, “Structural insights into the cooperative remodeling of membranes by amphiphysin/BIN1” (Scientific Reports, 2015).

Target: the molecule itself
Assay: cryo-EM 2D class averages and power spectra; 2D classification (Relion) of segments of tubes remodeled by N-BAR, N-BAR-deltaH0 or FL; liposomes 2POPG:1POPE; periodic spacings read from the power spectra; BAR dimers to a lattice on the membrane

B1: full length Drosophila amphiphysin/BIN1 (FL, residues 1-602) (natural protein, UniProt Q7KLE5 1-602, looked up)
chain: MTENKGIMLAKSVQKHAGRAKEKILQNLGKVDRTADEIFDDHLNNFNRQQASANRLQKEFNNYIRCVRAAQAASKTLMDSVCEIYEPQWSGYDALQAQTGASESLWADFAHKLGDQVLIPLNTYTGQFPEMKKKVEKRNRKLIDYDGQRHSFQNLQANANKRKDDVKLTKGREQLEEARRTYEILNTELHDELPALYDSRILFLVTNLQTLFATEQVFHNETAKIYSELEAIVDKLATESQRGSNTLRKQTSNPIKTSSPVQSPVNKLNNANINSNYQNQITTNGGSSLANSPTSTSSSLQEPRFDSVSSTPEPRPESPAAALVSATPSSPVENGVTTKSLERPELSGLNASAKATTTTQTSPTEDKAVVSEAVKPSETEGAAVAASVTPAPPATPAQINGNNNEPSIVKEGGKQPKELPSTTSNAEAAAEAAANNGNSIEEHKQKKLGNDTTVTATETVTVTQHSVTSTDTDNIVTISDTNTDTDTKTSTGTSQKGRPVPVVNRHSVNNLNKNPFEDDDERIYEVPADANTADLPPGVLYRVKATYGYAKEDVDELSFEIGDLIRVIEYDDPEDQEEGWLMGQKEGTNEKGLFPANFTRPI
notes: amphiphysin/BIN1, Drosophila, full length, residues 1-602; Cloned either with a 3C-cleavable hexahistidine tag or a SenP2-cleavable sumo-hexahistidine tag; source: E. coli BL21 gold, purified (His-Trap, anion exchange, SEC)
B1: binds.
